Measurements as given in US11472855, “RNA-binding protein” (Panitch Schwarze Belisario & Nadel LLP).
Numbering of substitutions follows the chain as printed.

Columns and labels:
Settings in all cases: label: Alexa680 at 5' and 3'
[1] = target: T1, hPUF_MT(R1_Q16R, R3→R5, R4→R6) (R1 repeat Q16R); assay: EMSA; C>U>>G>A; printed as Q16E (C recognition)
T1 chain: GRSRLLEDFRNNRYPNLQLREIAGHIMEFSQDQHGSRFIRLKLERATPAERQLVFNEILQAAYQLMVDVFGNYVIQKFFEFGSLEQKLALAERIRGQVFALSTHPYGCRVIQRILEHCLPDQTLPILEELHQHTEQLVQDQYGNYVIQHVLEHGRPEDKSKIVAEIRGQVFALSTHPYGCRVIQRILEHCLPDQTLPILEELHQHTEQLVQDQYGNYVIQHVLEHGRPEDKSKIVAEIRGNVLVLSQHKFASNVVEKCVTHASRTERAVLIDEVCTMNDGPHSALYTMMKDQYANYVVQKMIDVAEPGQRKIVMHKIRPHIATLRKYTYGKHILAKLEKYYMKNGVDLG

[2] = target: T2, hPUF_MT(R3→R5, R4→R6); assay: EMSA; U=C>A>G at R1 position
T2 chain: T1 chain with R40Q

[3] = target: T2, hPUF_MT(R3→R5, R4→R6); assay: EMSA; U=C>A>G at R1 position; backbone printed as R4→R5
[4] = target: T3, hPUF_MT(R1_S12N, R3→R5, R4→R6) (R1 repeat S12N); assay: EMSA; U>C>>G=A
T3 chain: T1 chain with S36N, R40Q

[5] = target: T4, hPUF_MT(R7_S12N,E16Q, R3→R5, R4→R6) (R7 repeat S12N,E16Q); assay: EMSA; binds U exclusively
T4 chain: T1 chain with R40Q, S252N, E256Q

[6] = target: T2, hPUF_MT(R3→R5, R4→R6); assay: EMSA; binds G exclusively at R7 position
[7] = target: T5, hPUF_MT(R7_E16R, R3→R5, R4→R6) (R7 repeat E16R); assay: EMSA; binds C and U
T5 chain: T1 chain with R40Q, E256R

[8] = target: T6, hPUF_MT(R7_S12C,E16Q, R3→R5, R4→R6) (R7 repeat S12C,E16Q); assay: EMSA; U>C
T6 chain: T1 chain with R40Q, S252C, E256Q

[9] = target: T7, hPUF_MT(1-2-6-5-6-5-6-7-8); assay: EMSA
T7 chain: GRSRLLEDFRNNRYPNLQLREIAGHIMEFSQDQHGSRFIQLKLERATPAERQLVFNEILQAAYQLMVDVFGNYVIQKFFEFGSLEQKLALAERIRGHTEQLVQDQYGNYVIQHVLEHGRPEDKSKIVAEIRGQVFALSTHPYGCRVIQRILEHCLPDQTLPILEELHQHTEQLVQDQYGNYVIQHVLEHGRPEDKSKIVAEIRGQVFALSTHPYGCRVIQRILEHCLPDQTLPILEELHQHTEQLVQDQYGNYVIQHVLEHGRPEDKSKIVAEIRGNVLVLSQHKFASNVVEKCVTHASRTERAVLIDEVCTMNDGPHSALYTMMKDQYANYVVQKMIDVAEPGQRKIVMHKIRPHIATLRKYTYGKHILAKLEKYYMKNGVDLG

[10] = target: T8, hPUF_MT(1-2-5-5-6-5-6-7-8); assay: EMSA
T8 chain: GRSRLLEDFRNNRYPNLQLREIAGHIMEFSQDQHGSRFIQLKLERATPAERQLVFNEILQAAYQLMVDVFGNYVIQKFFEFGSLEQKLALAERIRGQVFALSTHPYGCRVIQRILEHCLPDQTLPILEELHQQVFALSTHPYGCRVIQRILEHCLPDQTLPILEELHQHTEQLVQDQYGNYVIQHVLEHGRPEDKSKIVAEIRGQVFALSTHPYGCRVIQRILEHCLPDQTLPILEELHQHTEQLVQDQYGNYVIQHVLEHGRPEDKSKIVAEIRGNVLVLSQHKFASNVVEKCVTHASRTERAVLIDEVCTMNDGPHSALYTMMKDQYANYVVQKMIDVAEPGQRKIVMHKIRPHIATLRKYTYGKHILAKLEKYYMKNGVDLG

[11] = target: T9, hPUF_MT(R1_Q16E, R3→R5, R4→R6) (R1 repeat Q16E); assay: EMSA; G>>U=C
T9 chain: T1 chain with R40E

[12] = target: T10, hPUF_MT(1-2-5-6-5-6-6-7-8); assay: EMSA
T10 chain: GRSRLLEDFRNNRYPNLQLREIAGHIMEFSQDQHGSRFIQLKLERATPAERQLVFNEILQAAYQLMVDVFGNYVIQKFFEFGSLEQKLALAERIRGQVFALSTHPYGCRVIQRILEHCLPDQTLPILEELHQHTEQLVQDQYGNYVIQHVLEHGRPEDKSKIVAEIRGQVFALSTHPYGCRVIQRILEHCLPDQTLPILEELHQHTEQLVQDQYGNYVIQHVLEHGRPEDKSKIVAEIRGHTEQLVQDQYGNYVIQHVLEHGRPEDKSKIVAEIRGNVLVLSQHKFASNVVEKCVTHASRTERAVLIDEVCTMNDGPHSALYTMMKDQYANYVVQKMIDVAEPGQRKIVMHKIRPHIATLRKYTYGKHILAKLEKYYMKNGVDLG

[13] = target: T11, hPUF_MT(R8→R5) (UniProt Q14671 SEQ:1-349); assay: EMSA; substantially no binding
T11 chain: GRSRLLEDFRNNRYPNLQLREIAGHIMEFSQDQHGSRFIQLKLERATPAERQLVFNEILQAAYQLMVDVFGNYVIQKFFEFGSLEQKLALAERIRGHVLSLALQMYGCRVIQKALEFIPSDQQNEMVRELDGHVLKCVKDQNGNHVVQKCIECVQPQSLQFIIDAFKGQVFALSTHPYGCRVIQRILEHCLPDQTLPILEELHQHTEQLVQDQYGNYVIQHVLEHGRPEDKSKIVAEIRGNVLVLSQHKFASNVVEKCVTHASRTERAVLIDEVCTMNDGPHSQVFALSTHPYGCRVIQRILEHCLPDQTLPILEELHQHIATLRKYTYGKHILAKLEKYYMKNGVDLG

[14] = target: T12, hPUF_MT(R8_N12C, R3→R5, R4→R6) (R8 repeat N12C); assay: EMSA; no binding
T12 chain: T1 chain with R40Q, N295C

[15] = target: T13, hPUF_MT(R8_N12S, R3→R5, R4→R6) (R8 repeat N12S); assay: EMSA; no binding
T13 chain: T1 chain with R40Q, N295S

[16] = target: T2, hPUF_MT(R3→R5, R4→R6); assay: EMSA; binds U exclusively at R8 position

B1: OTS-2021 (ssRNA)
RNA: CCAGAAUUGUAUAUCUUCG
binding result [1]: binds | binding result [2]: binds

B2: OTS-2022 (ssRNA)
RNA: CCAGAAUUGUAUAUUUUCG
binding result [3]: binds | binding result [4]: binds

B3: OTS-2032 (ssRNA)
RNA: CCAGAAUUUUAUAUAUUCG
binding result [5]: binds | binding result [6]: no binding | binding result [7]: binds | binding result [8]: binds

B4: OTS-2080 (ssRNA)
RNA: CCAGAAUUGUAUAUUAUUCG
binding signal [9]: ~3 fold of WT

B5: OTS-2081 (ssRNA)
RNA: CCAGAAUUGUAUAAUAUUCG
binding signal [10]: ~3 fold of WT

B6: OTS-2020 (ssRNA)
RNA: CCAGAAUUGUAUAUGUUCG
binding result [11]: binds

B7: OTS-2082 (ssRNA)
RNA: CCAGAAUUGUUAUAUAUUCG
binding signal [12]: ~3 fold of WT

B8: OTS-1825 (ssRNA)
RNA: CCAGAAUAGUAUAUAUUCG
binding result [13]: no binding | binding result [14]: no binding | binding result [15]: no binding | binding result [16]: no binding
